These results are taken from patent US10472401B2, “Peptides and combination of peptides for use in immunotherapy against ovarian cancer and other cancers” (immatics biotechnologies GmbH, priority 2015, dated 2019).

The assay addresses HLA-A*02:01 (Homo sapiens, UniProt P04439, D140Y/D185E/D98H/E176V/E277Q/G131W/G231S/I119V/I121R/I166T/I218V/L300P/L318F/N151K/N90K/P208A/P217A/Q86G/Q94H/R138H/R169H/T345S). The assay is described as follows: MHC binding assay (UV-ligand exchange, ELISA of stabilized MHC complexes). Conditions: MHC class I binding score; binding to HLA-A*02:01 ranged by peptide exchange yield (UV-ligand exchange, ELISA). The procedure, abridged:
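Peptide-MHC complexes made by UV-ligand exchange, cleaving a UV-sensitive placeholder peptide and replacing it with the test peptide. Exchange yield measured by ELISA: streptavidin-captured monomers (diluted 100-fold, 1 h, 37 °C) detected with HRP anti-β2m and TMB, absorbance at 450 nm.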
For “182 (MLLEAPGIFL; listed as Homo sapiens) [compound 182]”, the Peptide exchange entry is recorded as “″+++″ (≥50% = +++)”.
For “183 (FGLDLVTEL; listed as Homo sapiens) [compound 183]”, the Peptide exchange result is recorded as “″+++″ (≥50% = +++)”.
Regarding “184 (YLMDINGKMWL; listed as Homo sapiens) [compound 184]”, the Peptide exchange result is listed as “″+++″ (≥50% = +++)”.
Next, “185 (FLIDDKGYTL; listed as Homo sapiens) [compound 185]”: “″++″ (≥20% = ++)”; “186 (TLFFQQNAL; listed as Homo sapiens) [compound 186]”: “″++″ (≥20% = ++)”.
Next, “187 (RQISIRGIVGV; listed as Homo sapiens) [compound 187]”: “″+++″ (≥50% = +++)”; “188 (GLFPVTPEAV; listed as Homo sapiens) [compound 188]”: “″+++″ (≥50% = +++)”.
Next, “189 (ALQRKLPYV; listed as Homo sapiens) [compound 189]”: “″+++″ (≥50% = +++)”.
For “190 (FLSSLTETI; listed as Homo sapiens) [compound 190]”, the Peptide exchange result is listed as “″+++″ (≥50% = +++)”.
On to “191 (LLQEGQALEYV; listed as Homo sapiens) [compound 191]”, for which the Peptide exchange result is listed as “″++″ (≥20% = ++)”.
With “192 (KMLDGASFTL; listed as Homo sapiens) [compound 192]”, the Peptide exchange result is given as “″+++″ (≥50% = +++)”.
For the substance “193 (QLLDADGFLNV; listed as Homo sapiens) [compound 193]”, the Peptide exchange entry is on record as “″+++″ (≥50% = +++)”.
Take “194 (ALPLFVITV; listed as Homo sapiens) [compound 194]”: the Peptide exchange entry is “″+++″ (≥50% = +++)”.
Next, “195 (GLFADLLPRL; listed as Homo sapiens) [compound 195]”: “″+++″ (≥50% = +++)”.
Turning to “196 (YLYSVEIKL; listed as Homo sapiens) [compound 196]”, the Peptide exchange entry is on record as “″++++″ (≥75% = ++++)”.
For “197 (ALGPEGGRV; listed as Homo sapiens) [compound 197]”, the Peptide exchange result is “″++″ (≥20% = ++)”.
Take “198 (KTINKVPTV; listed as Homo sapiens) [compound 198]”: the Peptide exchange entry is on record as “″+++″ (≥50% = +++)”.
Take “200 (LLFGSVQEV; listed as Homo sapiens) [compound 200]”: the Peptide exchange entry is given as “″+++″ (≥50% = +++)”.
Next, “201 (RLVDYLEGI; listed as Homo sapiens) [compound 201]”: “″+++″ (≥50% = +++)”; “202 (ALLDQQGSRWTL; listed as Homo sapiens) [compound 202]”: “″+++″ (≥50% = +++)”.
Next, “204 (KIAENVEEV; listed as Homo sapiens) [compound 204]”: “″++″ (≥20% = ++)”; “205 (SLYPGTETMGL; listed as Homo sapiens) [compound 205]”: “″+++″ (≥50% = +++)”; “206 (VLQEGKLQKLAQL; listed as Homo sapiens) [compound 206]”: “″+++″ (≥50% = +++)”.
Consider “207 (GLTSTNAEV; listed as Homo sapiens) [compound 207]”, for which the Peptide exchange result was “″++″ (≥20% = ++)”.
For “208 (KISPVTFSV; listed as Homo sapiens) [compound 208]”, the Peptide exchange entry was “″+++″ (≥50% = +++)”.
In the case of “209 (KLIESKHEV; listed as Homo sapiens) [compound 209]”, the Peptide exchange entry is “″++″ (≥20% = ++)”.
Turning to “210 (LLLNAVLTV; listed as Homo sapiens) [compound 210]”, the Peptide exchange result is listed as “″++″ (≥20% = ++)”.
Next, “211 (LLWPGAALL; listed as Homo sapiens) [compound 211]”: “″++″ (≥20% = ++)”; “212 (ALWDQDNLSV; listed as Homo sapiens) [compound 212]”: “″++″ (≥20% = ++)”.
With “214 (FLLDLDPLLL; listed as Homo sapiens) [compound 214]”, the Peptide exchange result was “″+++″ (≥50% = +++)”.
With “215 (QLINHLHAV; listed as Homo sapiens) [compound 215]”, the Peptide exchange result is on record as “″+++″ (≥50% = +++)”.
Consider “216 (NLWEDPYYL; listed as Homo sapiens) [compound 216]”, for which the Peptide exchange result is recorded as “″+++″ (≥50% = +++)”.
Turning to “217 (ALIHPVSTV; listed as Homo sapiens) [compound 217]”, the Peptide exchange result is given as “″++″ (≥20% = ++)”.
Regarding “218 (SALEELVNV; listed as Homo sapiens) [compound 218]”, the Peptide exchange result is listed as “″++″ (≥20% = ++)”.
Next, “219 (KLSDIGITV; listed as Homo sapiens) [compound 219]”: “″+++″ (≥50% = +++)”; “220 (LLQKFVPEI; listed as Homo sapiens) [compound 220]”: “″++″ (≥20% = ++)”.
For the substance “221 (ALYEEGLLL; listed as Homo sapiens) [compound 221]”, the Peptide exchange entry is recorded as “″++″ (≥20% = ++)”.
“222 (NLIENVQRL; listed as Homo sapiens) [compound 222]”: the Peptide exchange entry is reported as “″++″ (≥20% = ++)”.
With “223 (ALLENIALYL; listed as Homo sapiens) [compound 223]”, the Peptide exchange result is on record as “″+++″ (≥50% = +++)”.
Regarding “224 (TLIDAQWVL; listed as Homo sapiens) [compound 224]”, the Peptide exchange entry is on record as “″+++″ (≥50% = +++)”.
As to “225 (SLLKVLPAL; listed as Homo sapiens) [compound 225]”, the Peptide exchange result was “″+++″ (≥50% = +++)”.
Next, “226 (MLYVVPIYL; listed as Homo sapiens) [compound 226]”: “″++″ (≥20% = ++)”; “227 (ALMNTLLYL; listed as Homo sapiens) [compound 227]”: “″++″ (≥20% = ++)”.
“228 (AMQEYIAVV; listed as Homo sapiens) [compound 228]”: the Peptide exchange result is “″++″ (≥20% = ++)”.
In the case of “229 (RLPGPLGTV; listed as Homo sapiens) [compound 229]”, the Peptide exchange entry is reported as “″++″ (≥20% = ++)”.
Regarding “230 (ILVDWLVEV; listed as Homo sapiens) [compound 230]”, the Peptide exchange result is “″+″ (≥10% = +)”.
With “231 (FLSPQQPPLLL; listed as Homo sapiens) [compound 231]”, the Peptide exchange result is on record as “″++″ (≥20% = ++)”.
“232 (ALLEAQDVELYL; listed as Homo sapiens) [compound 232]”: the Peptide exchange result is recorded as “″++″ (≥20% = ++)”.
Next, “233 (VLSETLYEL; listed as Homo sapiens) [compound 233]”: “″++″ (≥20% = ++)”; “234 (ALMEDTGRQML; listed as Homo sapiens) [compound 234]”: “″++″ (≥20% = ++)”; “235 (YLNDLHEVLL; listed as Homo sapiens) [compound 235]”: “″++++″ (≥75% = ++++)”.
Next, “236 (GLLEAKVSL; listed as Homo sapiens) [compound 236]”: “″+++″ (≥50% = +++)”; “237 (ALLEASGTLLL; listed as Homo sapiens) [compound 237]”: “″++++″ (≥75% = ++++)”; “238 (YLISFQTHI; listed as Homo sapiens) [compound 238]”: “″+++″ (≥50% = +++)”.
Next, “239 (AAFAGKLLSV; listed as Homo sapiens) [compound 239]”: “″+++″ (≥50% = +++)”; “240 (ILLEQAFYL; listed as Homo sapiens) [compound 240]”: “″+++″ (≥50% = +++)”; “241 (SLVEVNPAYSV; listed as Homo sapiens) [compound 241]”: “″+++″ (≥50% = +++)”.
In the case of “242 (AIAYILQGV; listed as Homo sapiens) [compound 242]”, the Peptide exchange result is reported as “″++″ (≥20% = ++)”.
On to “243 (LLLNELPSV; listed as Homo sapiens) [compound 243]”, for which the Peptide exchange result was “″+++″ (≥50% = +++)”.
Consider “244 (SLFGGTEITI; listed as Homo sapiens) [compound 244]”, for which the Peptide exchange result was “″+++″ (≥50% = +++)”.
With “245 (SMIDDLLGV; listed as Homo sapiens) [compound 245]”, the Peptide exchange result is “″+++″ (≥50% = +++)”.
Next, “246 (LLWEVVSQL; listed as Homo sapiens) [compound 246]”: “″+++″ (≥50% = +++)”; “248 (FLFPNQYVDV; listed as Homo sapiens) [compound 248]”: “″+++″ (≥50% = +++)”; “249 (LLDGFLVNV; listed as Homo sapiens) [compound 249]”: “″+++″ (≥50% = +++)”.
“250 (ALSEEGLLVYL; listed as Homo sapiens) [compound 250]”: the Peptide exchange result was “″+++″ (≥50% = +++)”.
Regarding “251 (ALYTGFSILV; listed as Homo sapiens) [compound 251]”, the Peptide exchange result is “″++″ (≥20% = ++)”.
Turning to “252 (LLIGTDVSL; listed as Homo sapiens) [compound 252]”, the Peptide exchange result is on record as “″+++″ (≥50% = +++)”.
As to “253 (GLDAATATV; listed as Homo sapiens) [compound 253]”, the Peptide exchange entry is recorded as “″++″ (≥20% = ++)”.
As to “254 (TLLAFIMEL; listed as Homo sapiens) [compound 254]”, the Peptide exchange result is listed as “″+++″ (≥50% = +++)”.
For the substance “255 (VLASYNLTV; listed as Homo sapiens) [compound 255]”, the Peptide exchange entry is listed as “″+++″ (≥50% = +++)”.
